From the nanobody polyreactivity screen of Harvey et al. (2022) come the findings set out here.

This data set is described as follows: yeast display, Sf9 membrane polyspecificity reagent, FACS + sequencing; frameworks hold sequencing errors. In short, it runs like this:
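A nanobody's polyreactivity label depends on the gate it was sorted from. Yeast display cells were stained with 10% biotinylated, detergent-solubilized Sf9 membrane reagent for 1 hour at 4 °C, enriched on streptavidin microbeads and sorted by FACS. The low and high (top ~1%) gates were set on anti-HA fluorescence for expression and streptavidin fluorescence for reagent binding.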
With “QVQLAESGGGLVQAGGSLRLSCAASGRTFGRYVMGWYRQAPGKERELVAAITSSSSSTYADSVKGRFTISRDNAKNTVYLQMNSLKPEDTAVYYCNKRYTSRHRPEYDYWGQGTQVTVSS”, the “polyreactivity (PSR sort gate)” value is recorded as “high polyreactivity”.
“QVQLVESGGGLVQAGGSLRLSCAASGSIFGGYVMGWSRQAPGKEWELVAAITSGGSTYYADSVKGRFTISRDNAKNTVYLQMNSLKPEDTAVYYCNADPYTYSYGMYYWGQGTQVTVSS”: the “polyreactivity (PSR sort gate)” value was “low polyreactivity”.
With “QVQLVESGGGLVQAGGSLRLSCAASGRTFNYYAMGWYRQAPGKERELVASIRYSTGSTYYADSVKGRFTISRDNAKNTVYLQMNSLKPEDTAVYYCAARRYARASRYDYWGQGTQVTVSS”, the “polyreactivity (PSR sort gate)” value is “high polyreactivity”.
Consider “QVQLVESGGGLVQAGGSLRLSCAASGRTFYPYAMGWYRQEPGKVRELVARISSGGNTKYADSVKGRFTISRDNAKNTVYLQMNSLKPEDTAVYYCNAAHYDYVAWKRFNYWGQGTQVTVSS”, for which the “polyreactivity (PSR sort gate)” value was “high polyreactivity”.
For “QVQLVESGGGLVQAGGSLRLSCAASGRTLRWYAMGWYRQAPGKERELVAAIRWSGGSTYYADSVKGRFTISRDNAKNTVYLQMNSLKPEDTAVYYCAAYYVARDRRYPKAYSYEYWGQGTQVTVSS”, the “polyreactivity (PSR sort gate)” value is reported as “high polyreactivity”.
To “QVQLVESGGGLVQAGGSLRLSCAASGRTFYTNAMGWYRQAPGKERELVAVISRGGTTYYADSVKGRFTISRDNAQNSVSLQMNSLKPDDTAVYYCAKRSPYRYYGYKLRDYWGQGTQVTVSS” belongs “low polyreactivity”.
For the sequence “QVQRVESGGGLVQAGGSLRLSCAASRSIVNIYAMGWDRPAPGKERELVATITGIADSTYYADSVKGRFTISRDNAKNTVYLQMNSLKPEDTAVYYCAIYVSWPLYYYWGHGTQVTVSS”, the “polyreactivity (PSR sort gate)” value is “low polyreactivity”.
To “QVQLVESGVGLVQAGGSLRLICAASGSTFGVYAMGWYRQAPGKERELVARITSGGSTYYADSVKGRFTISRDNAKNTVYLQMNSLKPEDTAVYYCAAVYRRTRSWKFDYWGQGTQVTVSS” belongs “high polyreactivity”; to “QVQLVESGGGLVQAVGSLRLSCAASGSTFDHYAMGWYRQAPGKERELVAAISYSGSTTDYADSVKGRFTISRDNAMNTVYLQMISLKPEDTAVYYCAASGDVIQSPMDYWGQGTQVTVSS”, “low polyreactivity”.
“QVQLVESGGGLVQAGGSLRLSCAASGRIFTGNVMGWYRQAPGKERELVAAISYGGGSTNYADSVKGRFTISRDNAKNTVYLQMNSLKPEDTAVYYCAACIKRYLSYYTRYGYWGQGTQVTVSS”: the “polyreactivity (PSR sort gate)” value is on record as “high polyreactivity”.
To “QVQLVESGGGLVQAGGSLRLSCAASGRTFYYYAMGWYRQAPGKERELVAAISSNGGSTYADSVKGRYTISRDNAKNTVYLQMNSLKPEDTAVYYCNARFTYRWGMGYWGHGTQVTVSS” belongs “high polyreactivity”; to “QVQLVESGGGLVQAGGSLPLSCAASGSIFGTYAMGWYRQAPGKERELVAAITTSAGSTYYADSVKGRFTISRDNAKNTVYLQMKSLKPEDTAVYYCAARFRRGITYEYWGQGTQVTVSS”, “high polyreactivity”.
Turning to “QVQLVESGGGLVQAGGSLRLSCAASGRIFFANAMGWYRQAPGKEWELVGAISRGGRTNYADSVKGRFTISRDNAKNTVYLQMNSLKPEDTAVYYFAAVRLSHAPSYYLYGMAYWGHGTQVTVSS”, the “polyreactivity (PSR sort gate)” value is given as “low polyreactivity”.
With “QVQLVESGGGLVQAGGSLRLSCAASGIIFWRYAMGWYRQAPGKERELVAGITSRGGSTYYADSVKGRFTISRDNAKNTVYLQMNSLKPEDTAVYYCNADWYGQLWWGVDYWGQGTQVTVSS” the entry was “high polyreactivity”; with “QVQLVESGGGLVQAGGSLRLSCAASGSTFYRYAMGWYRQAPGKERELVAAISSGGRTYYADSVKGRFTISRDNAKNTVYLQMNSLKPEDTAVYYCAADDSEGFDYWGQGTQVTVSS”, “high polyreactivity”; with “QVQLVESGGGLVQAGGSLRLSCAASGLIFVGYAMGWYRQAPGKERELVAAITSGGSTYYADSVKGRFTISRDNAKNTVYLQMNSLKPEDTAVYYCAAQQGISNGTGVSATNPMDYWGHGTQVTVSS”, “low polyreactivity”.
As to “QVQLVESGGGLVQAGGSLRLSCAASGFTFYKNAMGWYRQAPGKERELVARITGRGGSTYYADSVKGRFTISRDNAKNTVYLQMNSLKPEDTAVYYCAVDGLVWRNRGFDYWGQGTQVTVSS”, the “polyreactivity (PSR sort gate)” value is listed as “high polyreactivity”.
With “QVQLVESGGGLVQAGGSLRLSCPASGFILQYNAMGWYRQAPGKERELVAAITRSGVSTHYADSVKGRFTISRDNAKNTVYLQMNSLKPEDTAVYYCARTGHSLYSRYYYWGQGTQVTVSS”, the “polyreactivity (PSR sort gate)” value is recorded as “low polyreactivity”.
To “QVQHVESGGGLVQAGGSLRLTCAASGSTFVNYAMGWYRQAPGKERELVAAITANGGRTYYADSVKGRFTISRDNAKNTVYLQMNSLKPEDTAVYYCNTESNLYRRRRNYWGQGTQVTVSS” belongs “low polyreactivity”; to “QVQLEESGGGLVQAGGSLRLSCAASGSIFVPYAMGWYRQAPGKERELVASISWRGGSTYYADSVKGRFTISRDNAKNTVYLQMNSLKPEDTAVYYCAAQKRGSPGYRRDYWGQGTQVTVSS”, “high polyreactivity”.
As for “QVQLVESGGGLVQAGGSLRLSCAGSGSTFRSNALGWYRQEPGKVRELVAAISLRGGSTDYADSVKGRFTISRDNAKNTVYLQMNSLTPEDTAVYFCAKVSKRVGFPTAMNYWGHGTQVTVSS”, the “polyreactivity (PSR sort gate)” value is “high polyreactivity”.
Consider “QVQLVETGGGLVQAGGSLRLSCAASGTIFKKYAMGWYRQAPGKERELVAAITRGTYYADSVKGRFTISRDNAKNTVYLQMNSLIPEDTAVYYFNREYWGRGYYRVRGEYDYWGQGTQVTVSS”, for which the “polyreactivity (PSR sort gate)” value was “low polyreactivity”.
As for “QVQLVESGGGLVQAGGSLRLSCAASGSTFSSYAMGWYRQAPGKEREFDAAINTDGGSTYYADSVKGRFTISRDNAKNTVYLQMNSLKPEDTAVYYCAARYYWPWYSSYDYWGQGTQVTVSS”, the “polyreactivity (PSR sort gate)” value is reported as “low polyreactivity”.
As for “QVHLVESGGGLVQAGGSLRLSCAASGITIWNNAMGWYRQAPGKERELVATISSNGGRTYYADSVKGRFTISLDTAKNTVYFQMNSLKPEDTAVYYCNAARRAYGYNYWGQGTQVTVSS”, the “polyreactivity (PSR sort gate)” value is reported as “low polyreactivity”.
In the case of “QVQLEESWGCLVQAGGSLRLSCAASGYTFVNYAMGWSRQAPGKEREFVAAISRSGGSTYYADSVKGRFTISRDNAKNTDYLQMHSLKPEDTAVYYCALRGYPPYKYYYWGQGTQVTVSS”, the “polyreactivity (PSR sort gate)” value is given as “high polyreactivity”.
For the sequence “QDQLVESGRGLVQAGGSLRLSCAASGRTFALNVMGWYRQAPGKERELVAAISRSGGSTYFADSVKGRFTISRDNAKNTVYIQMNSLKPEDTAVYSCAAATHYQSYKRRDYWGQGTQVTVSS”, the “polyreactivity (PSR sort gate)” value is “high polyreactivity”.
As to “QVQLVESGGGLVQAGGSLRLSCSASGSIFGFYAMGWYRQAPGKERELVAAIDSGDSTNYADSVKGRFTISRDHAKNTVYLQMNSQKPEDSAVYYCNAEAWWYFWFDYWGQGTQVTVSS”, the “polyreactivity (PSR sort gate)” value is “low polyreactivity”.
With “QVQLVESGGGLVQAGGSLRLSCAASGGTFRVYAMGWYIQAPGKERELVASISWTVGGTYADSVKGRFTISRDNAKNTVYLQMNSLKPEDTAVYYCAAGGEWVNPYFPSSLDYWGQGTQVTVSS” the entry was “low polyreactivity”; with “QVQLVESGGGLVQAGGSLRLSCAASGSIFYRNAMGWYRQAPGKERELVAAITWSGVNTYYADSVKGRFTISRDNAKNTVYLQMNSLKPEDTAVYYCAVPSRYWLNRGFDYWGQGSQVTVSS”, “low polyreactivity”; with “QVQLEESGGGLVQAGGSLRLSCAASGYTFGLYAMGWYRQAPRKERELVAAISSDASTNYADSVKGRFTISRDNAKNTVYLQMNSLKPEDTAVYYCAAAVKRGYAQSFISDGYGYWGQGTQVTVSS”, “low polyreactivity”.
